What was measured:
[1] = biological target: T1, SARS-CoV-2 spike protein receptor binding domain (RBD) (SARS-CoV-2, UniProt P0DTC2 319-541); assay: SPR
[2] = biological target: T1, SARS-CoV-2 spike protein receptor …; assay: SPR; remark: listed apart in the source

B1: Nb21 (VHH)
VHH: QVQLVESGGGLVQAGGSLRLSCAVSGLGAHRVGWFRRAPGKEREFVAAIGANGGNTNYLDSVKGRFTISRDNAKNTIYLQMNSLKPQDTAVYYCAARDIETAEYTYWGQGTQVTVSS
In the case of B1, the koff [1] is reported as < 1e-06 s⁻¹ and the Kd [2] is reported as < 1 pM.
